Among the data in patent US20210340265A1 (UNM RAINFOREST INNOVATIONS, published 2021) are binding result and Kd values, retold here.

Ends that are not written are not given here. * marks the point of attachment. Biotin = O=C1N[C@H]2[C@H](CS[C@H]2CCCCC(=O)*)N1

The target of assay [1] is T1, 15-amino-acid extracellular CCK-B receptor peptide fragment CETPRIRGTGTRELE
T1 construct: Custom peptide (GenScript) used for immunization and panning; also called CCK-B peptide
T1 peptide: Biotin-CETPRIRGTGTRELE
The assay can be described thus: indirect ELISA on CCK-B receptor peptide. (An ELISA detects its analyte on a solid surface through an enzyme-linked reagent.)

The target in assay [2] is T2, CCK-B receptor (as coated in the indirect ELISA; form not stated).
T2 chain: CETPRIRGTGTRELE
As to the kind of experiment: ELISA.

B1: CCKBR-scFv11-2 (scFv)
scFv: MAQVQLKQSGAELVRPGSSVKISCKASGYAFTNYLIEWVKQRPGQGLEWIGQIYPGDGDTNYNGKFKGKATLTVDNSSSTAYMELRSLTSEDSAVYYCARAATWYYAMDYWGQGTSVTVSSGGGGSGGGGSAIMSASPGEKVTITCSASSSVSYMHWFQQKPGTSPKLWIYSTSNLASGVPARFSGSGSGTSYSLTISSMEAEDAASYFCHQWSSYPWTFGGGTKLEIKRADAAALEHHHHHH
With B1, in assay [1], the binding result is “binds”.

B2: CCK-BR-scFv77-2 (scFv)
scFv: MAGAELVRSGASVKLSCTASGFNIKDYYIHWVKQRPEQGLEWIGWIDPENGDTEYAPKFQGKATMTADTSSNTAYLQLSSLTSEDTAVYYCNAGGRFAYWGQGTLVTVSAAKTTAPSGGGGSGGGGSGGGGGSGGGGSSSLSVSAGEKVTMSCKSSQSLLNSGNQKNYLAWYQQKPGQPPKLLIYGASTRESGVPDRFTGSGSGTDFTLTISSVQAEDLAVYYCQNDHSYPYTFGGGTKLEIKRADAAALEHHHHHH
Regarding B2, binding in assay [2] was characterised by a dissociation constant (Kd) of 195 nM.

B3: CCK-BR-scFv14-3 (scFv)
chain: MAGAELVRSGASVKLSCTASGFNIKDYYIHWVKQRPEQGLEWIGWIDPENGDTEYAPKFQGKATMTADTSSNTAYLQLSSLTSEDTAVYYCNAGGRFAYWGQGTLVTVSAAKTTAPSGGGGSGGGGSGGGGGSGGGGSSSLSVSSGEKVTMSCKSSQSLLNSGNQKNYLAWYQQKPGQPPKLLIYWASTDESGVPDRFTGSGSGTDFTLTVSSVQAENLALYYCQNDHSYPYHVFDGGTKLEIKRADAAALE
As for B3, binding in assay [2] was characterised by a dissociation constant (Kd) of 349 nM.

B4: CCK-BR-scFv134-1 (scFv)
scFv: MAGAELVKPGASVKMSCKASGYTFTDYWMHWVKQRPGQGLEWIGAIDTSDSYTSYNQKFKGKATLTVDKSSSTAYIQLSSLTSEDSAVYYCARSEGYLPFDYWGQGTTLTVSSAKTTAPSGGGGSGGGGSGGGGGSGGGGSLSLPVSFGDQVSISCRSSQSLANSYGNTYLSWYLHKPGQSPQLLIYGISNRFSGVPDRFSGSGSGTDFTLKISTIKPEDLGMYYCLQGTHQPRTFGGGTKLEIKRADAAALEHHHHHH
As to B4, the Kd (in general, a measure of binding affinity in units of concentration) in assay [2] is 366 nM.
